Values of other authors in publication PMC12083247.

Experiments:
S100A10 (Homo sapiens) = S100A10 (Homo sapiens) (UniProt P60903)
calpain (Homo sapiens) = calpain (Homo sapiens) (UniProt P07384)
Chain of UniProt P07384 (P07384 2-714): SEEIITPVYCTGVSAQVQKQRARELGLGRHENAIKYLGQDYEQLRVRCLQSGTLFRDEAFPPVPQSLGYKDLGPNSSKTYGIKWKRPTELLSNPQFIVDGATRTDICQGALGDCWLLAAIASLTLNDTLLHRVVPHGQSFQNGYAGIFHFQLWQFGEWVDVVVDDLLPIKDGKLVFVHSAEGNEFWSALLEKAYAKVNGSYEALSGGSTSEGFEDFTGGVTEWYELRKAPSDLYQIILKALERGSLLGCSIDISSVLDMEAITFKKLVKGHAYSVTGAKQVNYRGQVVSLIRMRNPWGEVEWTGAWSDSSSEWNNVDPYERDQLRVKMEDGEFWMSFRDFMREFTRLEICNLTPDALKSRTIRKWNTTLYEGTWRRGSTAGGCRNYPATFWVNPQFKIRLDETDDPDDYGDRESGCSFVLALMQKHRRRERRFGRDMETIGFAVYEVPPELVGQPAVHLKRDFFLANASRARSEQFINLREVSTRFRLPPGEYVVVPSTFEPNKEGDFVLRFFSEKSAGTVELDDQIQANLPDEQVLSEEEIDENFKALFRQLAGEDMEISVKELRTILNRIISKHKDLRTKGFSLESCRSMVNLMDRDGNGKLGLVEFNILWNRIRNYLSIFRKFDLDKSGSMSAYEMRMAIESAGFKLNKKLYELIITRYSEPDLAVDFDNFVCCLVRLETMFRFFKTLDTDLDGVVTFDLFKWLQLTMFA

Chain of UniProt P60903 (P60903 whole entry): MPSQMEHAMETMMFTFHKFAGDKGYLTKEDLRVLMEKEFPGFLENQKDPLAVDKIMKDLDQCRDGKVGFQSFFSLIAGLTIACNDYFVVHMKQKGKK

| Kd (S100A10 (Homo sapiens)) | Ki (calpain (Homo sapiens)) | Substance |
| --- | --- | --- |
| 13 nM |  | annexin A2 N-terminal 10-12 residues (from UniProt P07355) |
|  | 15 nM | calpastatin domain I (from UniProt P20810) |
